T1: La (LARP3), native (human, UniProt P05455 1-408)
T1 sequence: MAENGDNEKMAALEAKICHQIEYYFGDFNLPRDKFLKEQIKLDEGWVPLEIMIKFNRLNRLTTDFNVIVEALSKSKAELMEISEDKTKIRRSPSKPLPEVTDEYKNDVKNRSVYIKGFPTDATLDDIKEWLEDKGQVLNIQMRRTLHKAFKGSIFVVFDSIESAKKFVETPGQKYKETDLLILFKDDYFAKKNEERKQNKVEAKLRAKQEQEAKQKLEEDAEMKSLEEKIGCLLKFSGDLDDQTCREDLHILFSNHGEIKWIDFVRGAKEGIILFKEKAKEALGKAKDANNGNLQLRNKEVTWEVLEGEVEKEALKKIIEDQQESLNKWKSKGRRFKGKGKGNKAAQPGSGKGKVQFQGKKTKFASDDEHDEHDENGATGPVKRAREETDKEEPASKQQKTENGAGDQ


Target: T1, La (LARP3), native
Assay: EMSA; most RNA (22 nM) bound at 200-400 nM La; titration 6-700 nM; L37/L22 EMSA: 1x binding buffer (from 2x: 3 mM MgCl2, 300 mM NaCl, 1 mM EDTA, 0.1% Nonidet P-40), i.e. 1.5 mM MgCl2, 150 mM NaCl, 0.5 mM EDTA, 0.05% NP-40; pH not stated; 22 nM RNA, 40 ul, 10 min at room temperature; native 10% PAGE in TBE. CCND1 EMSA as in ref 42
Details: protein: recombinant; tags: His6; label: 3'-Cy3; weak secondary structure

| Binder | binding result |
| --- | --- |
| UUCCGGUCUCUUUGGCCUCGCCGGUAGAAGCAAGAUG (ssRNA) [L37 TOP RNA] | binds |
| CUCCUCUGCCGCCAUGGCUCCUGUGAAAAAGCUUGUG (ssRNA) [L22 TOP RNA] | binds |
